Here are results for two molecules from patent publication US20220073599A1 (Hoffmann-La Roche, published 2022).

One assay addresses T1, Cyno ANG2 (cyno, UniProt A0A2K5VNX6 281-496).
T1 construct: domain: RBD; also called cyno Ang2-RBD
T1 sequence: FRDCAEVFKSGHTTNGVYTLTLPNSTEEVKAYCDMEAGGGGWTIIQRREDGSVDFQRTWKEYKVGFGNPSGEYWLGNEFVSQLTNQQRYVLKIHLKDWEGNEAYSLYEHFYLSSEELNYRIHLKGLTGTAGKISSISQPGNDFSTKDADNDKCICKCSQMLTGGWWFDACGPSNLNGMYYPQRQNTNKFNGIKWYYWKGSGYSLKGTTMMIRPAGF
Kind of assay: SPR crossreactivity set-up, Fab captured by anti-Fab antibody, Ang2-RBD injected, 25 C. How it is done: (§1) An anti-Fab capturing antibody (GE Healthcare 28958325) was immobilized to a Series S Sensor Chip C1 (GE Healthcare BR100535) using standard amine coupling chemistry resulting in a surface density of approximately 800 resonance units (RU). As running and dilution buffer, HBS-P+ (10 mM HEPES, 150 mM NaCl pH 7.4, 0.05% Surfactant P20) was used, the temperature of measurement was 25° C. The tested antibody was captured by injecting a 50 nM solution for 60 sec at a flow of 5 μl/min. Association was measured by injection of Ang2-RBD from the indicated species in various concentrations in solution for 180 sec at a flow of 30 μl/min (0.07 nM-50 nM, 1:3 dilution). The dissociation phase was monitored for up to 600 sec and triggered by switching from the sample solution to running buffer at a flow rate of 30 μl/min. The surface was regenerated by injection of 10 mM Glycine pH 2.1 for 60 s at a flow rate of 30 μl/min. Bulk refractive index differences were corrected by subtracting blank injections and by subtracting the response obtained from the reference flow cell without captured antibody. Curve fitting was performed using the 1:1 Langmuir binding model within the Biacore® evaluation software.
(§2) Crossreactivity to VEGF-A and ANG2 from other species was assessed as described above in “Materials & general methods” section.

The next assay has as its target T2, Pig ANG2 (pig, UniProt Q9BDY7 275-496, limits assumed).
T2 construct: domain: RBD; also called pig Ang2-RBD
T2 sequence (looked up): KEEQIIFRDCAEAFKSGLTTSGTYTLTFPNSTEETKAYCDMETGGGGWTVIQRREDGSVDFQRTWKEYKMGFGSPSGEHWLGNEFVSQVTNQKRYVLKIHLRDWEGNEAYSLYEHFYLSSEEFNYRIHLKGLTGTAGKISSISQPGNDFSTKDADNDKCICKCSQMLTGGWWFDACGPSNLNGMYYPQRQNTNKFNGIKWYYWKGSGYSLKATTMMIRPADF
Described as above. How it is done:
as §1, §2

A further assay addresses T3, Mouse ANG2 (mouse, UniProt O35608 275-496, limits assumed).
T3 construct: domain: RBD; also called mouse Ang2-RBD
T3 sequence (looked up): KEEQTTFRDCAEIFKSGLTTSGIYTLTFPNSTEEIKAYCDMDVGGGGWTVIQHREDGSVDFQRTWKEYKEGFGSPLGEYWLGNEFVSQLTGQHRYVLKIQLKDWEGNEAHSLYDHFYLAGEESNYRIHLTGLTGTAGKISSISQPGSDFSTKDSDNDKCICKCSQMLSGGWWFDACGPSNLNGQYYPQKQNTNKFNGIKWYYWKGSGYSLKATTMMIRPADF
The assay is described as above. Here is the method:
as §1, §2

The target in a further assay is T4, Rabbit ANG2 (rabbit, UniProt G1T9B3 281-496).
T4 construct: domain: RBD; also called rabbit Ang2-RBD
T4 sequence: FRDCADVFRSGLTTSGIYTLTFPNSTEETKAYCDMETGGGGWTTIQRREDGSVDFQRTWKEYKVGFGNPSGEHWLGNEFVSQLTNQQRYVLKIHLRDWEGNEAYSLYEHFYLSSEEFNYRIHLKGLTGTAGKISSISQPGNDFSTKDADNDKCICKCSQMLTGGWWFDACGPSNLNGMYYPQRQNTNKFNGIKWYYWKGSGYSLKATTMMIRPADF
The assay is described as above. How it is done:
as §1, §2

Another assay has as its target T5, human Ang2-RBD (human, UniProt O15123 275-496, limits assumed).
T5 construct: also called Human ANG2 (SPR); Angiopoietin 2-RBD
T5 sequence: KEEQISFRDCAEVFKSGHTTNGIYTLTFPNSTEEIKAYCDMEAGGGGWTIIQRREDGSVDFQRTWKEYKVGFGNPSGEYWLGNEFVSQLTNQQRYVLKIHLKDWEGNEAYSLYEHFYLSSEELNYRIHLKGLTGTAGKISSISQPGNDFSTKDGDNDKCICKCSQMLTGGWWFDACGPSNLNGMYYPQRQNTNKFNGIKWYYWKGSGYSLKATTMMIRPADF
Described as above. How it is done:
as §1, §2

The target of the next assay is T6, human VEGFA-121-His (human, UniProt P15692 181-395).
T6 construct: Prepared in-house; not shown: His tag
T6 sequence: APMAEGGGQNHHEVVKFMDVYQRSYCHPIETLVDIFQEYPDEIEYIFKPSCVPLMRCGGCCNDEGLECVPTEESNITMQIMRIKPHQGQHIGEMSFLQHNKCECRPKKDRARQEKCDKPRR
Put plainly: SPR, VEGF-A121-His captured by anti-His antibody, Fab injected, single cycle kinetics. Here is the method: An anti-His capturing antibody (GE Healthcare 28995056) was immobilized to a Series S Sensor Chip C1 (GE Healthcare BR100535) using standard amine coupling chemistry resulting in a surface density of approximately 600 resonance units (RU). As running and dilution buffer, HBS-P+ (10 mM HEPES, 150 mM NaCl pH 7.4, 0.05% Surfactant P20) was used. […] A dilution series of the tested antibody (3.7-300 nM, 1:3 dilution) was successively injected for 60 s each, dissociation was monitored for 3600 s at a flow rate of 30 μl/min (single cycle kinetics). The surface was regenerated by injecting 10 mM Glycine pH 1.5 for 60 s at a flow of 5 μl/min. […] Curve fitting was performed using the 1:1 Langmuir binding model within the Biacore® evaluation software.
Background: SPR reads the build-up and loss of mass on a sensor chip optically.

A word on the Kd: it is the free concentration of one partner at which half of the binding sites on the other are occupied at equilibrium, for simple one-to-one binding. Lower therefore signals tighter binding. Usually koff stands for a measure of how fast the partners let go of each other. Usually kon stands for the rate constant with which the complex forms. The low end stands for slow association, the high end for fast association.

Numbering of substitutions follows the chain as printed.

B1: bispecific anti-VEGF-A/anti-ANG2 Fab fragment P1AD9820 (Fab, V domains shown)
VH: SEHLVESGGGLVKPGGSLRLSCATADFFEYDDMSWVRQAPGKGLEWVGSISPKGDHKYLNTKFIGRFTISRDDSKNTLYLQMNSLRAEDTAVYYCARDVGFFDWWGQGTLVTVSS
VL: AIYMHQEPSSLSASVGDRVTITCHGSYWLNSEVAWYQQKPGKAPKLLIFDGDFKVYEVPSRFSGSGSHEDYTLTISSLQPEDFATYYCQQYRYHPYTFGHGTKVEIKR
notes: Bispecific Fab with two paratopes in one VH/VL pair; also called P1AD9820 Fab
As to B1, the Kd with Cyno ANG2 was 2 pM; with Pig ANG2 it was 13 pM; with Mouse ANG2, 92 pM; with Rabbit ANG2, 5 pM; with human Ang2-RBD, 3 pM. In addition, the koff in the assay with Cyno ANG2 worked out at 1.56e-05 s⁻¹; in the assay with Pig ANG2 it was 0.000105 s⁻¹; with Mouse ANG2, 0.000743 s⁻¹; with Rabbit ANG2, 5.33e-05 s⁻¹; with human Ang2-RBD, 2.64e-05 s⁻¹. Further, the kon in the assay with Cyno ANG2 was determined as 9.98e+06 M⁻¹ s⁻¹; in the assay with Pig ANG2, 7.82e+06 M⁻¹ s⁻¹; with Mouse ANG2 it was 8.11e+06 M⁻¹ s⁻¹; with Rabbit ANG2, 9.91e+06 M⁻¹ s⁻¹; in the assay with human Ang2-RBD, 1.02e+07 M⁻¹ s⁻¹. Also, the “t1/2” value with Cyno ANG2 was 12.3 h; in the assay with Pig ANG2 it was 1.83 h; with Mouse ANG2, 0.267 h; in the assay with Rabbit ANG2, 3.62 h; with human Ang2-RBD, 7.28 h.

B2: bispecific anti-VEGF-A/anti-ANG2 Fab fragment P1AA8906 (Fab, V domains shown)
VH: DFQLVESGGGLVKPGGSLRLSCAASYEFEYDDMSWVRQAPGKGLEWVGSISPKGGSTYYNTKFIGRFTISRDNSKNTLYLQMNSLRAEDTAVYYCARDVGFFDMWGQGTLVTVSS
VL: B1 VL with N30S, S31N, E32Y, V33L, G51A, D52R, F53W, K54L, Y56H, E57G
notes: Bispecific Fab with two paratopes in one VH/VL pair (DutaFab); CH1 and Ckappa
Take B2: in the assay with human VEGFA-121-His, the “t1/2” value turned out to be 42.5 h.
